The target in one data set is T1, OCT3 (Homo sapiens, UniProt O75751).
T1 construct: Koepsell and Gorbulev (University of Würzburg); host or cells: HEK293
T1 sequence (O75751 1-556): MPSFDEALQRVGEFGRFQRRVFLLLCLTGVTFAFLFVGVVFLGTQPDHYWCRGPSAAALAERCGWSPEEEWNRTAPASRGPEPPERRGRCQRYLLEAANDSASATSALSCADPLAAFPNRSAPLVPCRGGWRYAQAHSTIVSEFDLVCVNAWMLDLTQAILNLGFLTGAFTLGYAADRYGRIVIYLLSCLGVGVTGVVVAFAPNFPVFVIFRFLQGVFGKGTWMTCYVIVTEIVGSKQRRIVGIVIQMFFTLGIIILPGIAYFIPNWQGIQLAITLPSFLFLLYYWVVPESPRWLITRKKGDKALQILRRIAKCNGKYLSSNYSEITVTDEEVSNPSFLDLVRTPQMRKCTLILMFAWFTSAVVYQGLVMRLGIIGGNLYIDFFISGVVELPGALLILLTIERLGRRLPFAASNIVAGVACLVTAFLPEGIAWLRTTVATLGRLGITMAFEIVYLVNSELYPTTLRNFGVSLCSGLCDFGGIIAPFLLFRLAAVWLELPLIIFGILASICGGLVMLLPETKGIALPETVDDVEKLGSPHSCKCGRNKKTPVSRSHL
Briefly: Screening of cellular uptake at 1 µM, OCT3-overexpressing HEK293 cells over empty vector control cells. Format: in vitro ADME. The following applies: 2 min. The source says: (§1) Koepsell and Gorbulev (University of Würzburg, Germany).
(§2) Eighteen psychostimulants and hallucinogens were initially screened for their potential to be substrates for different polyspecific OCTs and high-affinity monoamine neurotransmitter transporters (Figure 3), as well as for the efflux transporter MATE2-K (Supplementary Figure S1).

The conditions of data set [1]: cited from earlier work.
The next data set addresses T2, OCT2 (Homo sapiens, UniProt O15244).
T2 sequence (O15244 1-555 S270A): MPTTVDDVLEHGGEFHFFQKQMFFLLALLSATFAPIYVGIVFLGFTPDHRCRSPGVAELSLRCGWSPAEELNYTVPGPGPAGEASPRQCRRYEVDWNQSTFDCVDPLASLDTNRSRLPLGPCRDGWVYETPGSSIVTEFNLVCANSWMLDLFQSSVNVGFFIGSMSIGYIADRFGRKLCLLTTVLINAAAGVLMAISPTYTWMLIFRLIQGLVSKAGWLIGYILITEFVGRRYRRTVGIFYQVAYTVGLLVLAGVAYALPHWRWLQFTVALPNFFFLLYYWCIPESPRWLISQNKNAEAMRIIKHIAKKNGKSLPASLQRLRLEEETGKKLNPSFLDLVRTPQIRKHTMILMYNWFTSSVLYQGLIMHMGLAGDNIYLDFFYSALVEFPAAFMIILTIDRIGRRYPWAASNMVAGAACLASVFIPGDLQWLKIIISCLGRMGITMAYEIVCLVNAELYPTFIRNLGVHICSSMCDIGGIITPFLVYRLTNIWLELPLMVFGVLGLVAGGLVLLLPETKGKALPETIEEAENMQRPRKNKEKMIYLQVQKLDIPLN
Briefly: Screening of cellular uptake at 1 µM, OCT2-overexpressing HEK293 cells over empty vector control cells. The conditions noted are these: 2 min.
Excerpt: as §1, §2

For the next data set, the target named is T3, wild-type OCT2 (Homo sapiens, UniProt O15244).
T3 sequence (O15244 1-555 S270A): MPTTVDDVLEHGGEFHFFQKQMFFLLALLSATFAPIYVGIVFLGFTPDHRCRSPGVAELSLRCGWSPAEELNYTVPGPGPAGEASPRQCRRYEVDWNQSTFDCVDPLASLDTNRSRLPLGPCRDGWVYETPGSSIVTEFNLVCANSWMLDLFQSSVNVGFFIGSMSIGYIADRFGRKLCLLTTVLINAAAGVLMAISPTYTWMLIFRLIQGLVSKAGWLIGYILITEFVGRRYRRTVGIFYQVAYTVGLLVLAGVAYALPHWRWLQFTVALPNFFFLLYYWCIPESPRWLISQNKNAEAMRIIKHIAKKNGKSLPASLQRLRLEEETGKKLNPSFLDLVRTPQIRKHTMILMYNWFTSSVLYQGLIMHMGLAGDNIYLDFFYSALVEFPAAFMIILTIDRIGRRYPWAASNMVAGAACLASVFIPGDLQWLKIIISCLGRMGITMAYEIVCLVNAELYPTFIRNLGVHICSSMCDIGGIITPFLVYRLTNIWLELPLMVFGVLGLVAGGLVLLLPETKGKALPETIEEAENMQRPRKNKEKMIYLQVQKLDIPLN
The experiment in a line: Concentration-dependent transport by wild-type OCT2 in HEK293 cells. The conditions noted are these: for vmax: OCT2 WT.

The target in a further data set is T4, OCT2 variant A270S (Homo sapiens, UniProt O15244).
T4 sequence (O15244 1-555): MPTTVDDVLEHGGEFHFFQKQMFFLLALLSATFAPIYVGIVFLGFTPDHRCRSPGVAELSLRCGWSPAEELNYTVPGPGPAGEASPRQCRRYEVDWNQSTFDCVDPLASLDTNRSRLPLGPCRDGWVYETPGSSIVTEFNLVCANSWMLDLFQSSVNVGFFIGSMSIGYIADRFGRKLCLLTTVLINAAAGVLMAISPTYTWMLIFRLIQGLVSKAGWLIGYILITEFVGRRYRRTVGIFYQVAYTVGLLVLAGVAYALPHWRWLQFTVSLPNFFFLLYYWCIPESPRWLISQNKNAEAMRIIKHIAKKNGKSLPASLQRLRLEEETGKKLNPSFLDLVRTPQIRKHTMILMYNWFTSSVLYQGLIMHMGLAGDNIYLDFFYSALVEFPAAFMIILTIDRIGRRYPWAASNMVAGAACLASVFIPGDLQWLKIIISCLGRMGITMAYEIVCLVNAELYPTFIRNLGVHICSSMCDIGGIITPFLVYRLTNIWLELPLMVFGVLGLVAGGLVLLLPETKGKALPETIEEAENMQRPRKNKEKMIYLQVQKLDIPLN
The experiment in a line: Concentration-dependent transport by OCT2 variant A270S in HEK293 cells. The conditions noted are these: OCT2 A270S.

A further data set concerns the target SERT (Homo sapiens, UniProt P31645). The experiment in a line: Screening of cellular uptake at 1 µM, SERT-overexpressing HEK293 cells over empty vector control cells. The following applies: 2 min. Format: in vitro ADME.
Substrate in data set [2]: CNC(C)Cc1ccc(OC)cc1
Briefly: not read. The following applies: pH 7.4.

Substrate in data set [3]: CN(C)CCc1c[nH]c2ccccc12
Briefly: not read. The following applies: pH 7.4.

Substrate in data set [4]: CN[C@@H](C)[C@H](O)c1ccccc1
Briefly: not read. The conditions noted are these: pH 7.4, 37.0 °C.

Substrate in data set [5]: CN[C@@H](C)Cc1ccccc1
Briefly: not read. The following applies: other: OCT2 A270S; pH 7.4; 37.0 °C.

Substrate in data set [6]: COc1cc(CCN)cc(OC)c1OC
The experiment in a line: not read. The following applies: other: OCT1*1 (WT); net transport, 2 min; pH 7.4; 37.0 °C.

Sequence of SERT (P31645 whole entry): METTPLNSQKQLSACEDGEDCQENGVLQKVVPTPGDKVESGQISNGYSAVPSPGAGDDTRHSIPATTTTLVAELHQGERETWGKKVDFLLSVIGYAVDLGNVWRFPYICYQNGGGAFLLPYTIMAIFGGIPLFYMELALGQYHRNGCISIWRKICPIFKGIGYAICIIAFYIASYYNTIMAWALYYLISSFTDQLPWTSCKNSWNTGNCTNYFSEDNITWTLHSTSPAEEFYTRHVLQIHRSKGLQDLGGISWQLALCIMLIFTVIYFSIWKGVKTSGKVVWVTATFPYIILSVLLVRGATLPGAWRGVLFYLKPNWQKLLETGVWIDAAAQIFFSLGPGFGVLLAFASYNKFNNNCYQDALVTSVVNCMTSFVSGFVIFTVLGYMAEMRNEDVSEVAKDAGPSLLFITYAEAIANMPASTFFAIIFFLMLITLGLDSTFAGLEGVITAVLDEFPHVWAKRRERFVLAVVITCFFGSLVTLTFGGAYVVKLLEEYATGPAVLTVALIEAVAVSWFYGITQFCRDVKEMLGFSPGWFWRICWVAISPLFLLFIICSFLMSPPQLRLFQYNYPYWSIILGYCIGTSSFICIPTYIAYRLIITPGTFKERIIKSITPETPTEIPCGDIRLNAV

On to `CC(N)Cc1ccccc1` (stereo not shown) [Amphetamine], for which the “ratio of uptake in transporter-transfected cells over empty vector control cells” value (shortened to “ratio of uptake”) at OCT3 is given as “does not appear to be a substrate”.
Consider `C[C@H](N)C(=O)c1ccccc1` [Cathinone], for which the “renal elimination (unchanged in urine)” value in data set [1] (ref Kalix and Braenden, 1985, Toennes and Kauert, 2002) is 2–7%.
On to `CN(C)CCc1c[nH]c2ccccc12` [DMT, dimethyltryptamine], for which the “excreted unchanged in urine” value in data set [1] (following intramuscular administration, ref Sitaram et al., 1987, Barker, 2018) is 0.16%. Besides, at OCT2, the “ratio of uptake” value was “approximately 3 fold”.
As to `CN[C@@H](C)Cc1ccccc1` [Methylamphetamine], the results for the vmax on wild-type OCT2 (listed as Methamphetamine), at wild-type OCT2 (listed as methamphetamine) and on OCT2 variant A270S were 70.7 (± 8.3) pmol × mg protein^-1 × min^-1, 70.7 ± 8.3 pmol × mg protein^-1 × min^-1 and 34.5 (± 8.5) pmol × mg protein^-1 × min^-1, respectively. In addition, on wild-type OCT2 (human, pH 7.4), the Km at 2 min is 11.9 µM. In addition, the renal elimination in [1] (ref Toennes and Kauert, 2002, www.dosing.de and www.drugbank.ca) is reported as 30–54%. Moreover, the “ratio of uptake” value at OCT2 is listed as 4- to 6 fold.
Take `COc1ccc(CC(C)N)cc1` (stereo not shown) [PMA, para-methoxyamphetamine]: at SERT, the “ratio of uptake” value is on record as “slightly higher (albeit still low) uptake”.
As for `CNC(C)Cc1ccc(OC)cc1` (stereo not shown) [PMMA, para-methoxymethamphetamine], the “ratio of uptake” value at SERT was “slightly higher (albeit still low) uptake”; on OCT2, “approximately 3 fold”.

B1: wild-type OCT2 (Homo sapiens; S270A) (protein)
chain: MPTTVDDVLEHGGEFHFFQKQMFFLLALLSATFAPIYVGIVFLGFTPDHRCRSPGVAELSLRCGWSPAEELNYTVPGPGPAGEASPRQCRRYEVDWNQSTFDCVDPLASLDTNRSRLPLGPCRDGWVYETPGSSIVTEFNLVCANSWMLDLFQSSVNVGFFIGSMSIGYIADRFGRKLCLLTTVLINAAAGVLMAISPTYTWMLIFRLIQGLVSKAGWLIGYILITEFVGRRYRRTVGIFYQVAYTVGLLVLAGVAYALPHWRWLQFTVALPNFFFLLYYWCIPESPRWLISQNKNAEAMRIIKHIAKKNGKSLPASLQRLRLEEETGKKLNPSFLDLVRTPQIRKHTMILMYNWFTSSVLYQGLIMHMGLAGDNIYLDFFYSALVEFPAAFMIILTIDRIGRRYPWAASNMVAGAACLASVFIPGDLQWLKIIISCLGRMGITMAYEIVCLVNAELYPTFIRNLGVHICSSMCDIGGIITPFLVYRLTNIWLELPLMVFGVLGLVAGGLVLLLPETKGKALPETIEEAENMQRPRKNKEKMIYLQVQKLDIPLN
For B1, the Km is 7.9 (± 2.6) μM in the data set “not read [2]” (other: OCT2 WT), 13.0 (± 3.7) μM in “not read [3]” (other: OCT2 WT) and 15.7 (± 4.6) μM in the data set “not read [4]” (other: OCT2 WT). For the same molecule, the values for the Vmax in “not read [2]” (other: OCT2 WT), in the data set “not read [3]” (other: OCT2 WT) and in the data set “not read [4]” (other: OCT2 WT) were 225.1 (± 19.3) pmol × mg protein^-1 × min^-1, 296.7 (± 23.3) pmol × mg protein^-1 × min^-1 and 417.8 (± 35.6) pmol × mg protein^-1 × min^-1, respectively.

B2: OCT2 variant A270S (Homo sapiens) (protein)
chain: MPTTVDDVLEHGGEFHFFQKQMFFLLALLSATFAPIYVGIVFLGFTPDHRCRSPGVAELSLRCGWSPAEELNYTVPGPGPAGEASPRQCRRYEVDWNQSTFDCVDPLASLDTNRSRLPLGPCRDGWVYETPGSSIVTEFNLVCANSWMLDLFQSSVNVGFFIGSMSIGYIADRFGRKLCLLTTVLINAAAGVLMAISPTYTWMLIFRLIQGLVSKAGWLIGYILITEFVGRRYRRTVGIFYQVAYTVGLLVLAGVAYALPHWRWLQFTVSLPNFFFLLYYWCIPESPRWLISQNKNAEAMRIIKHIAKKNGKSLPASLQRLRLEEETGKKLNPSFLDLVRTPQIRKHTMILMYNWFTSSVLYQGLIMHMGLAGDNIYLDFFYSALVEFPAAFMIILTIDRIGRRYPWAASNMVAGAACLASVFIPGDLQWLKIIISCLGRMGITMAYEIVCLVNAELYPTFIRNLGVHICSSMCDIGGIITPFLVYRLTNIWLELPLMVFGVLGLVAGGLVLLLPETKGKALPETIEEAENMQRPRKNKEKMIYLQVQKLDIPLN
With B2, the Km in the data set “not read [2]” (other: OCT2 A270S) is listed as 14.4 (± 8.6) μM; in “not read [3]” (other: OCT2 A270S), 14.2 (± 7.9) μM; in “not read [4]” (other: OCT2 A270S), 14.7 (± 4.1) μM; in “not read [5]” it was 24.3 (± 17.0) μM. Also, the Vmax was 172.1 (± 31.5) pmol × mg protein^-1 × min^-1 in “not read [2]” (other: OCT2 A270S), 164.2 (± 25.9) pmol × mg protein^-1 × min^-1 in “not read [3]” (other: OCT2 A270S) and 229.5 (± 18.2) pmol × mg protein^-1 × min^-1 in the data set “not read [4]” (other: OCT2 A270S).

B3: OCT1*1 (WT) (Homo sapiens) (protein)
chain: MPTVDDILEQVGESGWFQKQAFLILCLLSAAFAPICVGIVFLGFTPDHHCQSPGVAELSQRCGWSPAEELNYTVPGLGPAGEAFLGQCRRYEVDWNQSALSCVDPLASLATNRSHLPLGPCQDGWVYDTPGSSIVTEFNLVCADSWKLDLFQSCLNAGFLFGSLGVGYFADRFGRKLCLLGTVLVNAVSGVLMAFSPNYMSMLLFRLLQGLVSKGNWMAGYTLITEFVGSGSRRTVAIMYQMAFTVGLVALTGLAYALPHWRWLQLAVSLPTFLFLLYYWCVPESPRWLLSQKRNTEAIKIMDHIAQKNGKLPPADLKMLSLEEDVTEKLSPSFADLFRTPRLRKRTFILMYLWFTDSVLYQGLILHMGATSGNLYLDFLYSALVEIPGAFIALITIDRVGRIYPMAMSNLLAGAACLVMIFISPDLHWLNIIIMCVGRMGITIAIQMICLVNAELYPTFVRNLGVMVCSSLCDIGGIITPFIVFRLREVWQALPLILFAVLGLLAAGVTLLLPETKGVALPETMKDAENLGRKAKPKENTIYLKVQTSEPSGT
As for B3, in “not read [6]”, the Km is recorded as 24.3 (±6.3) µM and the Vmax is 0.000642 µmol/min/mg.

(Values after publication PMC7854383, “Cellular Uptake of Psychostimulants – Are High- and Low-Affinity Organic Cation Transporters Drug Traffickers?” (Frontiers in Pharmacology, 2021).)
